Assay: yeast display, Sf9 membrane polyspecificity reagent, FACS + sequencing; frameworks hold sequencing errors
How it was run: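 In a synthetic yeast display library (Saccharomyces cerevisiae BJ5465), nanobody expression was induced with galactose for 36–48 hours. FACS gates were set low and high (top ~1%) using anti-HA fluorescence for expression and streptavidin fluorescence for binding of the Sf9 membrane reagent. Each polyreactivity label is drawn from the gate of origin.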

Sequence: QVQLVESGGGLVQARGSLRLSCAASGSIFRYNAMGWYRQAPGKERELVAAITSAGGSTYYADSVKGRFTISRDKAKNTVYLQMNSLKPEDTAVYYCAVRYYVYFPWPRVTERMYYWGQGTQVTVSS
- polyreactivity (PSR sort gate): high polyreactivity

Sequence: QDQLVESGGGLVQAGGSLRLSCAASGFIFVVYAMGWYTQAPGKERELVAAITYSGGSTYYADSVKGRFTISRDNAKNTVDLQMNSLKPEDTAVYYCAAPEHDREFDYWGQGTQVTVSS
- polyreactivity (PSR sort gate): low polyreactivity

Sequence: QVQLVESGGGLVQAGGSLRLSCAASGGTFWKYPMGWTRQAPGKERELVAAITWSGSSTYYADSVKGRFTISRDNAKNTVYLQMNSLKPEDTAVFYCAARYQPRKGAHYGYWGQGTQVTVSS
- polyreactivity (PSR sort gate): high polyreactivity

Sequence: QIKLEESGGGLVQAGGSLRISCAASGSTYWDKVMGWYRQAPGKEMELVAAIDSGGSTYYADSVKGRFTISRDNAKNTVYLLMNSLKPEDTEVYYCNSRVDTPSPYDYWGQGTQVTVSS
- polyreactivity (PSR sort gate): low polyreactivity

Sequence: QVQLVESGGGLVQPGGRLLLSSAASGSIFDYYVMGWYRLEPVKERELVAAISWSGASTYYADSVKGRFTISRDNAKNTVYVKMNSLKPEDTAVYYCAADYGVNTLIDYDYWGQGTQVTVSS
- polyreactivity (PSR sort gate): low polyreactivity

Sequence: QVQLVESGGGLVQAGGSLRLSCAASGRIFSGYAMGWYRQAPGKERELVAAITSVGSTNYADSVKGRFTISRDNAKNNVYLQMNSLKPEDTAVYYCAARSQSYYRYRSYGYWGQGTQVTVSS
- polyreactivity (PSR sort gate): high polyreactivity

Sequence: QGQLVESGGGLVQAGGSLRLSCAASGYIFLTNAMGWSREAPGKERVLVAAISWRGGRTYYADSVKGRFTISRDNAKNTVYLQMNSLKPEDTAVYYCNAVCEYYGKSDYWGQGTQVTVSS
- polyreactivity (PSR sort gate): low polyreactivity

Sequence: QVQLVESGGCLVQAGGSLRLICAASGSTFLLNAMGWYRQAPGKVRELVAAITSSGRTNYADSVKGRFTISRDNAKNTVYLQMNSLKPEDTAVYYCNTRYSPGYQGTDVDYWRQGTQVTVSS
- polyreactivity (PSR sort gate): low polyreactivity

Sequence: QVQLVESGGGLVQAGGSLRLSCAASGSTFRYYAMGWYRQAPGKERELVAAISRSGGRTYYADSVKGRFTISRDNAKNTVYLQMNSLKPEDTAVSYCATRGDGSSWGDHDYWGQGTQVTVSS
- polyreactivity (PSR sort gate): high polyreactivity

Sequence: QVQLVESGGGLVQAGGSLRLSCAASGSTFSYYAMGWYRQAPGKERELVAVISWSGGSTYYADSVKGRFTISRDNAKNTVYLQMNSLKPEDTAVYYCAARGYVRWYNRYDYWGQGTQVTVSS
- polyreactivity (PSR sort gate): low polyreactivity

Sequence: QVQLVESGGGLVQAGGSLRLSSAASGSPFIYYVMGWYRQAPGKERELVAAITRSGSTNYADSVKGRFTISRDNAKNTVYLQMNSLKPEDTAVYYCAAERALSRYGYWGHGTQVTVSS
- polyreactivity (PSR sort gate): low polyreactivity

Sequence: QVQLVESGGGIVQAGGSLRLSCAASGIIFPLYAMGWYRPAPGKERELVAAIRSTGGSTYYADSVKGRFTISRDNANNTVYLQMNSLKPEDTAVYYCNARQNRRQGNVGYWGQGTQVTVSS
- polyreactivity (PSR sort gate): low polyreactivity

Sequence: QVQLVESGGGLVQAGGSLRLSCAASGITFAWYAMGWYRQAPGKERELVAAIDDRGGSTYYADSVKGRFTISRDNAKNTVYFQMNSLKPEDTAVYYCNADTKSYEPYRLDYWGQGTQVTVSS
- polyreactivity (PSR sort gate): low polyreactivity

Sequence: QVHLVESGGGLVQAGGSLRLSCAASGSIYVNTMGWYRPAPGKERELVAGISRSTGRTYYADSVKGRFTISRDNAKNTVYLQMNSLKPEDTAVYYCNTVPWRRWGYDYWGQGTQVTVSS
- polyreactivity (PSR sort gate): high polyreactivity

Sequence: QVQLVESGGGLVQAGGSLRLSCAASGRIFPTNAMGWYRQAPGKERELVASITRSGSTYYADSVTGRFTISRDNAKNTVYLQMNSLKPEDTAVYYCAAYAYIFLDWGGYPYYLYEYDYWGQGTQVTVSS
- polyreactivity (PSR sort gate): low polyreactivity

Sequence: QVQLVESGGGLVQAGGSLRLSCAASGFIFVRYGMGWYRQAPGKERELVAAITWNGGSTFYADSVKGRFTISRDNAKNTVYLQMNSLKPEDTAVYYCAAGYKYSYRSIYTHVDYWGQGTQVTVSS
- polyreactivity (PSR sort gate): low polyreactivity

Sequence: QDQLVESGGGLVQAGGSLRLSCAASGSMLVNNAMGCYRQAPGKERELVAASSKSTGRTYYADSVKGRFTISRDNAKNTVYLQMNSLKPVDTAVFYCYALTHPDKFVYWGQGTQVTVSS
- polyreactivity (PSR sort gate): high polyreactivity

Sequence: RVQLQESGGGLVQAGGSLRLSCEASGTIFIRGDMGWYRQATGKEREFVATIDTGSNTYYADSEKGRFTISRDNAKNAVYLQMNCLKPGDTAVYYCVVDYQLSGRLRYWGQGTQVTLSS
- polyreactivity (PSR sort gate): low polyreactivity

Sequence: QVQLVESGGGLVQAGGSLRLSCAASGFTFKFYAMGWYRQAPGKEMEFVAAISGSGGSTYYADSVKRRFTISRDNAKNTVYLQMNSLKPEDTAVYYCAAEVPGKPYRRSRYSFRHDYWGQGTQVTVSS
- polyreactivity (PSR sort gate): low polyreactivity

Sequence: QVQLVDSGGGLLQAGGSLRLSCAASGNIFGRYAMGWYRQAPGKEREFVATITYSGGSTYYADSVKGRFTISRDNAKNTVYLQMNSLKPEDTAVYYCAARVGRPSLVAAKYDYWGQGTQVTVSS
- polyreactivity (PSR sort gate): high polyreactivity

Sequence: QVQLVESGVGLVQAGGSLRISCAASRSTFWNNCMGWYRQAPGKERDLVAAITVRGGSTYYADSVKGRFTISRDNAKNTVYLQMNSLKPEDTAVYFCAADRWLYSWFFNYDQGDYWGQGTQVSVSS
- polyreactivity (PSR sort gate): low polyreactivity

Sequence: QVQLVESGGGLVQARGSLRLSCAASGFNISNYAMGWYREAPGKESELVAAIRRSGGSTYYADSVKGRFTISRDNAKNTVYLQMNSRKPEDTAVYYCAAYPKRGSRYDYWGLGTQVTVSS
- polyreactivity (PSR sort gate): high polyreactivity

Sequence: QVQLVESGGGLVQAGGSLRLSCAASGNTFSSYAMGWYRQAPGKERELVAAISRRGGSTYYADSVKGRFTISRDNAKNTVYLQMNSLKPEDTAVYYCAADGTGFRYLRYDYWGQGTQVTVSS
- polyreactivity (PSR sort gate): high polyreactivity

Sequence: QVHLVESGGGLVQAGGSLRLSCAASGSIFDYYDMGWYRQAPGKERELVASITWSGGRTSYADSVKGRFTISRDNAKNTVYLQMNSLKPEDNAVYYCNARGFRGEYDYWVQGTQVTVSS
- polyreactivity (PSR sort gate): high polyreactivity

Sequence: QVQLVESGGGLVQAGGSLRLSCAASGLTFIYYAMGWYRQAPGKERELVAGITRRGGSTYYADSVKGRFTISRDNAKNNVYLQMNSLKPEDTAVYYCAKSPVYRFDSWGQGTQVTVSS
- polyreactivity (PSR sort gate): high polyreactivity

Sequence: QVQLVESGGRIVQAGGSLRLRCAASGRTLLRYAMGWSRQAPGKERELVAAISSSGGRTYYADSVKGRFTISRDNEKNTVYLQMNSLKPEDTAVYYCAAKSSYVGHDYWGQGTQVTVSS
- polyreactivity (PSR sort gate): high polyreactivity

Sequence: QVQLVESGGGLVQAGGSLRLSCAASGSTFYVNAMGWYRQAPGKDRELVAVISTGGSTYYADSVKGRFTISRDNAKNTVYLQMNSLKPEDTAVYYCAKRDLPDRSGTPNVIPFDYWGQGTQVTVSS
- polyreactivity (PSR sort gate): low polyreactivity

Sequence: QVQIVESGGGLVQAGGSLRLSCAASGFIFDYNAMGWYRQAPGKERELVAAISYSGGRTSYADSVKGRFTISRDNAKNTVYLQMNSLKPEDTAVYYCAKDNYVDFGGYYYPRMYYWGQGTQVTVSS
- polyreactivity (PSR sort gate): high polyreactivity

Sequence: QVQLVESGGRLVQAGGSLRLSCAASGSIFYSYAMGWYRQAPGKERELVAAISRSGVSTYYADSVKGRFTISRDNAKNTVYFQMNSLKPEDTAVYYCASPYFVSYQGYDYWGQGTQVTVSS
- polyreactivity (PSR sort gate): high polyreactivity

Sequence: QVQLVESGGGLVQAGGSLRLTCDASGSTFYHNAMGWYRQAPGKERELVAAITTSGGSTYYADSVKWRFTISRDNAKNTVYLQMNSLKPEDSAVYYCNVYRPYLAPYDYWGQGTQVTVSS
- polyreactivity (PSR sort gate): low polyreactivity

Sequence: QVQLVESGGGLVQAGGSLRLSCAASGSTFAYYARGWYRQAPGKERELVASISWRGGSTYYADSVKGRFTISRDNAKNTVYLQMNSLKPEDTAFYYCAAGRFYKWSRSQEYDYWGQGTQVTVSS
- polyreactivity (PSR sort gate): low polyreactivity

Sequence: QVQLVESGGGLVQAGGSLRLSCAASGPTFSQNVMGWYRQAPGKERELVAGISSGDITDYADSVKGRFTISRDNAKNTVYLQMNSPKPEDTAVYYCTYYGKSGGYRYTYYYWGQGTQVTVSS
- polyreactivity (PSR sort gate): high polyreactivity

Sequence: QVQLVESGGGLVQAGGSLRLSCAASGFIFYYNAMGWYRQAPGKERELVAAITRSGGSTYYADSVKGRFTISRDNAKNTVYLQMNSLKPEDTAVYYCAARVYPYHWSYYYWGQGTQVTVSS
- polyreactivity (PSR sort gate): high polyreactivity

Sequence: QVQLVESGGGLVQAGGSSRLSCAASGRTFDDYAMGWYRQAPATERELVAAISSRGGSTYYADSVKGRFTISRDNAKHTVYLQMNSLKPEDTAVYYSNTLQSSHGSSQYDSWGQGTQVTVSS
- polyreactivity (PSR sort gate): low polyreactivity

Sequence: QVQLVESGGGLVHAGGSLRLTCAASGRTYRNGMGWYRQAPGKERELVAAISVSGTRTYYADSVKGRFTISRDNAKNTVYLQMNSLKPEDTAVYYCNADLSPTADDELDYRLVRDDYWGQGTQVTVSS
- polyreactivity (PSR sort gate): low polyreactivity

Sequence: QVQLVESGGGLVQAGGSLRLSCAASGRTFYSNAMGWYRQAPGKERELVAAITFGGGSTYYADSVKGRFTISRDNAKNTVYVQMNSLKPEDTAVYYCAAEGYKYRFYYWGQGTQVTVSS
- polyreactivity (PSR sort gate): low polyreactivity

Sequence: QVQLVESVGGLVQAGGSLRLSCAASGFTFARYAMGWYIQAPGKERELVAAISISGGRTYYADSVKGRFTISRDNAKNTVYLQMNSLKPEDTAVYYCNKGHVPSYDYNYWGQGTQVTVSS
- polyreactivity (PSR sort gate): high polyreactivity

Sequence: QVQLVESGGGLVQAGGSLRLSCADSGITFAPYAMGWSRQAPGKERELVATITWSGGSTYYADSVKGRFTISRDNAKNTVYLQMNSLKPEDTAVYYCAAYNDTVPSAAHIYESWGQGTQVTVSS
- polyreactivity (PSR sort gate): low polyreactivity

Sequence: QVQLVESGGGLVQAGCILRLSCAASGRIYVKAMGCYRQPPGIERELVAAIRSGGSTNYADSVKGLFTISRDNAKNTVYLQMNSLKPEDTAVYYCDAPYRLSKYDYWGQGTQVTESS
- polyreactivity (PSR sort gate): high polyreactivity

Sequence: QVQLQESGGGLVQAGGSLRLSCAASGNIVDADIMGWYRQAPGKERELVASITDGGSTNYADSEKGRFTICRDNAKNTVYLQMNSVKPEDTAVYYCAAMAYPDIPTSFDYDSEYFYWGQGTQVKVSS
- polyreactivity (PSR sort gate): low polyreactivity

Sequence: QVQLVESGGGLVQAGGSLRLSCAASGSIFYNYTMGWSRQAPGKERELVAAISSSGGSTYYADSVKGRFSISRDNAKITVYLQMNSLTPEDTAVYFCAARSPGYYRIVWYDYWGLGTQVTVSS
- polyreactivity (PSR sort gate): high polyreactivity

Sequence: QVQLVESGGGLVQAGGSLRLSCAASGRIFVPYVMGWYRQAPGKERELVASISDSDTSTYYADSVKGRFTISRDNAKNTVDLQMNSLKPEDTAVYYCNVDYWGQGTQVTVSS
- polyreactivity (PSR sort gate): low polyreactivity

Sequence: QVQLVESGGGLVQAGGSLRLSCAASGFTFGYYAMGWSRQAPGKERELVAAISWSGSRTYYADSVKGRFTISRDNAKNTVYLQMNSLKPEDTAVYYCAAQRYRYLYTSTGWQRYDYYYWGQGTQVTVSS
- polyreactivity (PSR sort gate): high polyreactivity
